# Data as given in patent US20220127309A1.
# Key:
# [1] = target: Ectodomain of RSV F (1-513) - DScav mutations - Foldon SSM (Respiratory Syncytial virus); test: ELISA, printed as affinity (FIG. 1C)
# [2] = target: Ectodomain of RSV F (1-520) - DScav mutations - HIV GP160-based SSM (Respiratory Syncytial virus); test: ELISA, printed as affinity (FIG. 1C)
# [3] = target: Ectodomain of RSV F (1-520) - HIV GP160-based SSM (Respiratory Syncytial virus); test: ELISA, printed as affinity (FIG. 1A)
# [4] = target: Ectodomain of RSV F (1-513) - DScav mutations - Foldon SSM (Respiratory Syncytial virus); test: ELISA, printed as affinity (FIG. 1B)
# [5] = target: Ectodomain of RSV F (1-520) - DScav mutations - HIV GP160-based SSM (Respiratory Syncytial virus); test: ELISA, printed as affinity (FIG. 1B)
Substance,Kd [1],Kd [2],Kd [3],Kd [4],Kd [5]
"Broadly cross-neutralizing, prefusion specific monoclonal antibody MPE8",10.8 nM,7.6 nM,–,–,–
Prefusion specific monoclonal antibody D25,–,–,23.4 nM,1.3 nM,1.2 nM
